Measurements taken from the domain aggregation screens of Martell et al. (2025).

Experiment: soluble fraction after stress (log2 fold change); higher = more stays soluble; pooled small domains, quantitative proteomics
Conditions: stress: 75 degC
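Note: 20 min heating vs room temperature control held 20 min.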

Sequence | soluble fraction (log2)
HMDFSVTIKGTSFPVMVSLKKMKQVRLKVFPSGEIKLSAPVGTPEKWIVEYLNDKMSWIEEKMDLFVQ | -1.26
HMADEIQLVVQVNGKLRGRIMVAPDASREEIEKTALADADVSRFLGDTPVKKVIIVPKRLVNIVAPAPK | -1.08
HMDKGQRGWINLVSVPTARVIIDGYDTGHETPLYGYEVERGKRKVTLISLDGTYERTYEIRIEPGTTTRVR | -0.779
HMGTAGLSPWHKIAVLMIALGPEGASELMRHFGEDEVEQVVQAIADLKNVPSELQDAVLLEMEGALQEG | 0.00911
HMGRPWRIGDVVNVSRPTGDGGGFTKGLITRIYPTTVQVTWNPDLQHARPWTTMEKKQYLIFVYHDDE | -3.09
HMYHADLIGLRVETAAGEKLGTVKAVHNFGAGDVIEITGAEDKDGLMVPFTAEVVPEVDIENGRIVVS | -0.0762
HMSFEITGDELILRFVKDKGGATTEQIRKHWEASNRGGKSDNNLTNLVKSGKLLRSKDPNGPGSLYTAS | -0.0632
HMNNLPDFIKQLRKENNLTQEYVASEIGVSRPTYEQIEKGKRELTISEAEKLAKIFNIPLENFLQGKKGV | 0.122
HMEKVTPEMIAEYNALAKKYNSNPEVVFKKKEIQRLKYIYSLMSEKQKETAEVFPNIPPPPPT | 0.162
HMDTGKLQSLVGSRGVAHTVLRPSGKVMIGDDVYPAVAETGFIPRGTAIVVRREEQGQLYVVEARK | -0.318
HMYKMKDRIKKIMEMQRTTQQDFADQLKIAPATLSSIFTGRTRPTLAIVDAIKSRFPQISTDWLMFGKGDM | -0.151
HMMTDEEFLRIAGYMKQRYGIDLGQKKVIMNGRLENHIKSGGWSSFHAFMNDLEKDSSGKLEKELVNLLTT | -0.239
HMSNSWSYSEFMKAVESGQVESVTISGQSIKGTSRGGQAFESVLPAFDDKLMDTLLVNDVEVIGEKP | 0.556
HMGQPRPLTAEDFDFLSDDEIAEMRKALSNGEMLRLRELIAQIGEKRPFLAERLLVLAKQYNYEDLSRLLE | -0.472
HMAKETLRANIKDYIQKQIASGVYRPGDRIVETQLAREMNVSQAPVREAILELVSLGLLEERPYSGHMVRQ | 0.0046
HMRQMIIIMQKQAAASSVAAVVEFIRSKGLREHISPGAERTIIGAVGDERVFLPQELESLPQVERAIRVL | -3.67
HMDRKEEIIIVTLKLASQIGLSNVSMEQIAKQVGIKKPSLYNHFKSKDEIIDAMYEYLREKSKN | -2.16
HMQLGSILAYKFPQFGGIDGAWQVRDDSNGTGPYIAFWDAKTIGRGMPTEDELTAWAQEYEA | -0.206
HMTVDHDERRSMILEAFMRLAAREGLHAVSLRGVAAEAGISLRLVQYYFETKARLMQSGLTALET | -0.141
HMTVKRNILQELLKTAFKHPEDFRPSKTFYGETGIGQKRFWALYYGHKAVTQKEYYAVADYLG | -0.0737
HMALSLPDDMTIVRKDGSSLEVRLKSRTVTEIHFERISDSETFQFSIDQLDETTRELVEQYPVM | -0.31
HMSDVTPDVVRALRKRLKLTQVQFGEIFGMTSKKVSAWEHGKAEPTEEQKQKIQSLLKENNEQ | -0.146
HMGTSGLTIPRFVSLASGTVHMRAGPGVRYPITWIYKRLGTPLMVMAEHEFWRKVRDAEGTEGWMHRSLLS | 0.0559
HMKIATIELVKEAVKSKLGKFTKRDIMELVPSVGKTTIENMLKQLIGEGYIERHGKGRATFYVK | -0.761
HMTSLTDDELSVVMLVREREISFDEITSETGFDAARLNSVLTMLKIKGIIDETTGKHYRISGGA | -1.01
HMSSYAEVMERSKYLQLHKYKIWKSETDGFWRTYYLNEQGKRKMKKLKHSEDMIDFVIEYVQNNE | -2.17
HMELIELTVTEEFEMARLDQFLAGHLTQSRTYIQKLIKAGQITINGNLITRVKVPVHYGDFILINIPDPE | -3.68
HMPELFLFNPDTASAATFQALGFSARQAGVLIHFREALGGRFGSVEQFSKSYVVDSATLERLRPYMVF | -4.13
HMSYTAYLSQELGDMSREIQSELLKKGYNGSSSFTIVRTYMGSSVKFSVYNANNGELITSKTINM | -2.9
HMYDDEELDVLAHRPIESYTDAELAMLREVAETLLETDYEGWLKSLSMRGILLPPEILQLVT | -0.269
